Reference: article doi:10.1101/2022.11.30.518474 (bioRxiv, 2022)

Molecular target: the molecule itself
Assay: SEC; purified recombinant protein (40 μg in 50 μl) on a TOSOH G2000 SWXL column in hexokinase buffer (20 mM HEPES, 5 mM Mg acetate, 100 mM NaCl, 0.5 mM EDTA, 0.5 mM DTT) without glucose, no ATP, 1 mL/min

B1: Recombinant Hxk2, wild type, C-terminal 6-histidine tag, from E. coli (enzyme, S. cerevisiae, UniProt P04807 1-486, looked up)
chain: MVHLGPKKPQARKGSMADVPKELMQQIENFEKIFTVPTETLQAVTKHFISELEKGLSKKGGNIPMIPGWVMDFPTGKESGDFLAIDLGGTNLRVVLVKLGGDRTFDTTQSKYRLPDAMRTTQNPDELWEFIADSLKAFIDEQFPQGISEPIPLGFTFSFPASQNKINEGILQRWTKGFDIPNIENHDVVPMLQKQITKRNIPIEVVALINDTTGTLVASYYTDPETKMGVIFGTGVNGAYYDVCSDIEKLQGKLSDDIPPSAPMAINCEYGSFDNEHVVLPRTKYDITIDEESPRPGQQTFEKMSSGYYLGEILRLALMDMYKQGFIFKNQDLSKFDKPFVMDTSYPARIEEDPFENLEDTDDLFQNEFGINTTVQERKLIRRLSELIGARAARLSVCGIAAICQKRGYKTGHIAADGSVYNRYPGFKEKAANALKDIYGWTQTSLDDYPIKIVPAEDGSGAGAAVIAALAQKRIAEGKSVGIIGA
notes: Hexokinase 2 (Hxk2) of S. cerevisiae; also called WT Hxk2; wild-type Hxk2; source: E. coli (pET14b), purified (Ni-NTA)
  stoichiometry N: 2
